Results on 41 sequences are retold here after the nanobody polyreactivity screen of Harvey et al. (2022).

The nature of this data set: yeast display, Sf9 membrane polyspecificity reagent, FACS + sequencing; frameworks hold sequencing errors. Put shortly: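 In a synthetic yeast display library (Saccharomyces cerevisiae BJ5465), nanobody expression was induced with galactose for 36–48 hours. FACS gates were set low and high (top ~1%) using anti-HA fluorescence for expression and streptavidin fluorescence for binding of the Sf9 membrane reagent. Each polyreactivity label is drawn from the gate of origin.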
As for “QVQLVDSGGGLVQAGGSLRLSCAASGITFWWYAMGWSRPAPGKEREVVAAISQRGGTYYADSVKGRFTISRDKAKNTVFLQMKSLKPDDTAVDSCAAVVYSRYAPYSAQYDDWGQGTQVTVSS”, the “polyreactivity (PSR sort gate)” value is “high polyreactivity”.

On to “QVQLVDSGGGLVQAGGSLRLSCAASGITIPSYTMGWYRQGPGKERELVATIRNGGSTYYADSVKGRFTISRDNAKNTVYLQMNSLIPEDTAVYYCAAVPLWDYIFFYYLLYDYWGQGTQVTVSS”, for which the “polyreactivity (PSR sort gate)” value was “low polyreactivity”. In the case of “QVQLVDSGGGLVQAGGSLRLSCAASGLIFSYNAMGWYRQAPGKERELVATIRRVGSTNYADSVKGRFTISRDNEKNTVYLQMNSLKPEDTAVYYCAARSLRYGRGMYYWGQGTQVTVSS”, the “polyreactivity (PSR sort gate)” value was “high polyreactivity”.

As to “QVQLVDSGGGLVQAGGSLRLSCAASGLSFLVNAMGWYRQAPGKERELVAAIDRDGGITYADSVKGRFTISRDNAKNTVYLQMNSLKPDDTAVSYCAADPSSYGRFTYDYWGQGTQVNVSS”, the “polyreactivity (PSR sort gate)” value was “low polyreactivity”. In the case of “QVQLVDSGGGLVQAGGSLRLSCAASGLTFRRYAMAWYRQAPGKERELVAGISRGGSTYYADSVKGRFTISRDNAKNTVYLQMTSLKPEDTAVYYCAAYNRGTYPVQPVPYDMDYWGQGTQVTVSS” it was “low polyreactivity”; in that of “QVQLVDSGGGLVQAGGSLRLSCAASGLTILPNAMGWSRQAPGNDRELVAAISWGDGNTYYADSVKGRFTISRDNAKNTVYLQMNSLKPEDTAVYYCAADVIKSRTYDYWGQGTQVTVSS”, “low polyreactivity”; in that of “QVQLVDSGGGLVQAGGSLRLSCAASGNIFTSYARGWYRQAPGKERELVAAISSGGRTSYADSVKGRFTISRDNAMNTVFLQMNSLKPDYTAVYYCAAYYRRWPREYYYWGQGTQVSVSS”, “high polyreactivity”.

With “QVQLVDSGGGLVQAGGSLRLSCAASGRIFGAYTMGWYRQAPGKEREFVADITSGGSTDYADSVKGRFTISRDNAKNTVSLQMNSLKPEDTAVYYCAAGGWVASLYLYDYWGHGTQVTVSS”, the “polyreactivity (PSR sort gate)” value is given as “low polyreactivity”. “QVQLVDSGGGLVQAGGSLRLSCAASGRIFGYNAMGWSRQAPGKERELVAAISSGGGTNYADSVKGRFTISRDNAKNTVYLQMNSLKPEDTAVYYCAVRRRRYHTYYRGYDYWGQGTQVTVSS”: the “polyreactivity (PSR sort gate)” value is “low polyreactivity”. The value for “QVQLVDSGGGLVQAGGSLRLSCAASGRIFHCYAMGWYRQAPGKERELVAAIRASGGRTYYADSVKGRFTISRDNAKNTVYLQMNSLKPEDTAVYYCAADSVKYGGDYWGQGTQVTVSS” was “high polyreactivity”; that for “QVQLVDSGGGLVQAGGSLRLSCAASGRIFPYYDMGWYRQAPGKERELVAAITWNGGSTYYADSVKGRFTISRDNAKNTVYLQMNSLKPEDTAVYYWAVEPYYYGEDYWGQGTQVTVSS” was “low polyreactivity”; that for “QVQLVDSGGGLVQAGGSLRLSCAASGRTFAWNAMGWYRQAPGKERELVAVITSGGSTNYADSVKGRFTISRDNAKNTVYLQMNSLKPEDTAVYYCATGDGPSLFDYWGQGTQVTVSS” was “low polyreactivity”. The value for “QVQLVDSGGGLVQAGGSLRLSCAASGRTFGRKAMGWYRQAPGERELVAVISRGGSTYYADSVKGRFTISRDNAKNTVYLQMNSLKPEDTAVYYCNADTVYTRTAPYDYCGQGTQVTVSS” was “low polyreactivity”; that for “QVQLVDSGGGLVQAGGSLRLSCAASGRTFIFYAMGWSRQAPGKERELVAAISSGGSTDYADSVKGRFTISRDNAKNTVYLQMNSLKPEDTAVYFCKADTFQYPSTYDYWGQGNQVTVSS” was “low polyreactivity”. The value for “QVQLVDSGGGLVQAGGSLRLSCAASGRTFRSNAMGWYRQAPGKERELVAAITGSGGRTYYADSVKGRFTISRDNAKNTVYLQMNSLKPEDTAVYYCAARGRAHWHYDDWGQGTQVTVSS” was “high polyreactivity”. “QVQLVDSGGGLVQAGGSLRLSCAASGRTIHYYAMGWYRQAPGKEREVVAVISSGGSTYYADSVKGRFTISRDNAKNTVYLQMNSLKPEDTAVYYCAALSSRTYKTGYYTYDYWGQGTQVTVSS”: the “polyreactivity (PSR sort gate)” value is “low polyreactivity”. In the case of “QVQLVDSGGGLVQAGGSLRLSCAASGSIFGSNAMGWYRQAPGKERELVAAITWSDGSTYYADSVKGRFTISRDNAKNTVYLQMNSLKPEDTAVYYCATDYGYSWYDYWGQGTQVTVSS” it was “low polyreactivity”; in that of “QVQLVDSGGGLVQAGGSLRLSCAASGSIFVSYTMGRYRQAPGKEREFVAAITKSGGSTYYADSVKGRFTISRDNAKNTVYLQMNSLKPEDTAVYYCAADWLHYVYEGYDYWGQGTQVTVSS”, “low polyreactivity”; in that of “QVQLVDSGGGLVQAGGSLRLSCAASGSIILLNAMGWYRQAPGKEREMVARIRINGGSTYYADSVKGRFTISRDNAKNTVYLKMNSLKPEDTAVYYCAADDTGPYSNWYDYWGQGTQVTVSS”, “low polyreactivity”. In the case of “QVQLVDSGGGLVQAGGSLRLSCAASGSILLYYTMGWYRPAPGKERELVATMSSSGGSTYYADSVKGRFTISRDNAKNTVYLQMNSLKPEDTAVYYCNADYIYYGTTYEYWGQGTQVTVSS” it was “low polyreactivity”; in that of “QVQLVDSGGGLVQAGGSLRLSCAASGSNFVWYAMGWYIQAPGKEREMVAAITWSGGSTYYADSVKGRFTISRDNAKNTVYLPMNSLKPEDSAVYYFNAVSYRYYSKLGSWGQGTQVTLSS”, “high polyreactivity”; in that of “QVQLVDSGGGLVQAGGSLRLSCAASGSTFKIYAMGWYRQAPGKERELVARITGRGGSTYYADSVKGRFTISRDNAKNTVYLQMNSLKPEDTAVYYCAAAKRYYSEMYWGQGTQVTVSS”, “high polyreactivity”. The value for “QVQLVDSGGGLVQAGGSLRLSCAASGSTFLAYAMGSSRQAPGKQTELVAAITWNSCSSTFYADSVKGRFTISRDNAKNSVYLQMNSLKPEDTAVYYCNADVPSPAYYGDGTPYREDNYWGQGTQVTVSS” was “low polyreactivity”; that for “QVQLVDSGGGLVQAGGSLRLSCAASGSTFSRYAMGWYRQARGKERELVAAITDGGDSTYYADSVKGRFTISRDNAKNTVYLQMNSLKPEDTAGYYCNADRLQYGRTPHYDYWGQGTQVTVSS” was “low polyreactivity”; that for “QVQLVDSGGGLVQAGGSLRLSCAASGSTFSSYAMGWYRQAPGKERELVDVITRGTSTNYADSVKGRFTISRDNAKNTVYLQMNSLKPEDTAVYYCNSRRGSRRFGYCGQGTQVTVSS” was “high polyreactivity”. As to “QVQLVDSGGGLVQAGGSLRLSCAASGSTFSVYAMVWYRQAPGKERELVAAISKRGTSTYYADSLKGRFTISRDYAKNTLYLQKNSLKPEDTAVYYCAAEAYRPSPFYYWGQGTQVTFSS”, the “polyreactivity (PSR sort gate)” value was “high polyreactivity”. Consider “QVQLVDSGGGLVQAGGSLRLSCAASGSTFVYYAMGWYRQAPGKERELVAAISSGGRTYYADSVKGRFTISRDNAKNTVYFQMNSLKPEDTAVYYCATYPRYSKSPGYDSWGQGTQVTVSS”, for which the “polyreactivity (PSR sort gate)” value was “high polyreactivity”. “QVQLVDSGGGLVQAGGSLRLSCAASGYIFHLYGMGWYRQAPGKERELVARISYRGGSTYYADSVKGRFTISRDNAKNTVYLQMHSLKPEDTAVYYCAKDYYKHYYWGQGTQVTVSS”: the “polyreactivity (PSR sort gate)” value was “high polyreactivity”.

With “QVQLVDSGGGLVQAGGSLRLSCAASGYIFYFNAMGWYRQAPGKEREMVAAISDRDDSTYYADSVKGRFTISRDNAKNTVYLQMNSLKPEDTAVYYCAADGYTYVDDPYDYWGQGTQVTVSS”, the “polyreactivity (PSR sort gate)” value was “low polyreactivity”. For “QVQLVDSGGGLVQAGGSLRLSCAASVQTIYQKAMGWYRPAPGKERELVAAITRSGGSTRYADSVKGRFTISRDNAKNTVYLEMSSLKPEDTSVFYCNARYRIGSWYEFGSWGQGTQVTVSS”, the “polyreactivity (PSR sort gate)” value is “high polyreactivity”. Turning to “QVQLVDSGGGLVQAGGSLRLSCAAYGRIFGIYTMGWYRQAPGKERELVAAIRFSGSRTYYADSVKGRFTISRDNAKNTVYLQMNSLKPEDTAVYYCNADWWFYRLRNEYWGQGTQVTVSS”, the “polyreactivity (PSR sort gate)” value was “high polyreactivity”. The value for “QVQLVDSGGGLVQAGGSLRLSCADSGSIFPANVMGWYRQAPGKERELVAAISRGGSTYYADSVKGRFTISRDNAKNTVYLQMNSLKPEDTAVYYCAVAFRGSYRPAYYYWGQGTQVTVSS” was “high polyreactivity”.

“QVQLVDSGGGLVQAGGSLRLSCASSGIIFGYYAMGWYRPAPGKERELVAGITYRTGSTDYADSVKGRFTISRDNAKNTVYFQMNSLKPEDTAVYFCAATQDKRKYSSCYYYWGQGTQVTVSS”: the “polyreactivity (PSR sort gate)” value was “high polyreactivity”. In the case of “QVQLVDSGGGLVQAGGSLRLSCDASGSTFRGTVMGWYRQAPGKERELVAGIYSGGSTYYADSVKGRFTISRDNAKNTVYLQMNSLKPEDTAVYYCAAYRRQHIIYNDWGQGTQVTVSS” it was “high polyreactivity”.

On to “QVQLVDSGGGLVQAGGSLRLSCPASGFIFAKYAKGWSRQAPGKERELGAAITSGGSTNYADSVTGRFTISRDNAKNTVYLQMHSLKPEDTAVYYCNRGFDWWYRYRHYDYWGQGTQVTVSS”, for which the “polyreactivity (PSR sort gate)” value is on record as “low polyreactivity”. “QVQLVDSGGGLVQAGGSLRLSCPASGFNFYRNAMGSYRQAPGKERELVAAISGSGGRTYYADSVKGRFTISRDNAKNTVYLQMNSLKPEDTAVYYCATDYAYSPYRYWTRYDYWGQGTQVTVSS”: the “polyreactivity (PSR sort gate)” value is listed as “high polyreactivity”.

Take “QVQLVDSGGGLVQAGGSLRLSCPASGRTFYVYDMGWYRQSPGKERELVAVISSSGSTNYADSVKGRFTISRDNAKNTVYLQMNSLKPEDTAVYYCNRRRWYFFSLDFWGEGTQVTVSS”: the “polyreactivity (PSR sort gate)” value is given as “high polyreactivity”. The value for “QVQLVDSGGGLVQAGGSLRLSCPASGSTFSRYAMGWYRQAPGKERELVAAISRSGGTTYYADSVKGRFTISRDNAKNTVYLQMNSLKPEDTAVYYCNDRGRYEYGYWGQGTQVTVSS” was “high polyreactivity”; that for “QVQLVDSGGGLVQAGGSLRLSSAASGRTLVNYAMGCYRQAPGKERELVAAISYSGGSTYYADSVKGRFTISRDNAKNTVYLQMNSLKPEDTAVYYCAAYYYQRYDYWGQGTQVTVSS” was “high polyreactivity”. The value for “QVQLVDSGGGLVQAGGSLRLTCAASGIIFRLYGMGWYRQAPGKEREFVATITWRGGRTNYADSVKGRFTISRDNAKNTVYLQMNSLKPEDTAVYYCAKVVRYARSNEYDSWGQGTQVTVSS” was “low polyreactivity”. For “QVQLVDSGGGLVQAGGSLRLTFAASGSIFAWYAMGLYRQEPGKERELVAVITRGGSTNYADSVKGRFTISRDNAKNTVYLPMISQKPEDTAVYYCAAGSYYSWYPFDYWGQGTQLTVSS”, the “polyreactivity (PSR sort gate)” value is reported as “low polyreactivity”.
